Measured values from paper PMC7544213, “Weak binding to the A2RE RNA rigidifies hnRNPA2 RRMs and reduces liquid–liquid phase separation and aggregation”.

Key:
Settings in all cases: protein: recombinant; tags: His tag removed by TEV; single strand
[1] = biological target: T1, hnRNPA2 1-189 (tandem RRMs) (UniProt P22626-2 1-189); assay: ITC; ITC: 20 mM NaPi pH 6.75, 150 mM NaCl, 25 C (also 20 mM KPi pH 6.75; 20 mM MES pH 6.7, 150 mM NaCl, 10 mM CaCl2); protein in syringe, RNA in cell
[2] = biological target: T1, hnRNPA2 1-189 (tandem RRMs); assay: ITC; 20 mM KPi pH 6.75, no NaCl; N about 1; ITC: 20 mM NaPi pH 6.75, 150 mM NaCl, 25 C (also 20 mM KPi pH 6.75; 20 mM MES pH 6.7, 150 mM NaCl, 10 mM CaCl2); protein in syringe, RNA in cell
[3] = biological target: T1, hnRNPA2 1-189 (tandem RRMs); assay: ITC; 7000 uM protein, 800 uM RNA; N 0.798; ITC: 20 mM NaPi pH 6.75, 150 mM NaCl, 25 C (also 20 mM KPi pH 6.75; 20 mM MES pH 6.7, 150 mM NaCl, 10 mM CaCl2); protein in syringe, RNA in cell
[4] = biological target: T1, hnRNPA2 1-189 (tandem RRMs); assay: ITC; 4600 uM protein, 115 uM RNA; N 0.785; ITC: 20 mM NaPi pH 6.75, 150 mM NaCl, 25 C (also 20 mM KPi pH 6.75; 20 mM MES pH 6.7, 150 mM NaCl, 10 mM CaCl2); protein in syringe, RNA in cell
[5] = biological target: T1, hnRNPA2 1-189 (tandem RRMs); assay: ITC; 20 mM NaPi pH 6.75, 150 mM NaCl; N about 1; ITC: 20 mM NaPi pH 6.75, 150 mM NaCl, 25 C (also 20 mM KPi pH 6.75; 20 mM MES pH 6.7, 150 mM NaCl, 10 mM CaCl2); protein in syringe, RNA in cell
[6] = biological target: T1, hnRNPA2 1-189 (tandem RRMs); assay: ITC; 7000 uM protein, 800 uM RNA; N 0.921; ITC: 20 mM NaPi pH 6.75, 150 mM NaCl, 25 C (also 20 mM KPi pH 6.75; 20 mM MES pH 6.7, 150 mM NaCl, 10 mM CaCl2); protein in syringe, RNA in cell

T1 sequence (P22626 other isoform, or with tags, fused parts or gaps): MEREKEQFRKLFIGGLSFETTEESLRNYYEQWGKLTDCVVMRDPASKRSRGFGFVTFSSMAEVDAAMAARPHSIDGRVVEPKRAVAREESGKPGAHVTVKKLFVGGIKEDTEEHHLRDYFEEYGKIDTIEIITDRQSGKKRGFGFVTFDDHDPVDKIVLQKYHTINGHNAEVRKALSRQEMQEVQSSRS

Work on AAGGACUAGC (ssRNA) [Wu_10mer] yielded a Kd [1] of 0.228 ± 0.002 µM.

Binder GCCAAGGAGCC (ssRNA) [rA2RE11] has a Kd [2] of ~35 µM, a Kd [3] of 143 ± 10 µM and a Kd [4] of 19.8 ± 0.4 µM. For the same binder, the Kd [5] was ~52 µM and the Kd [6] was 139 ± 10 µM.
